Results: PMC5951847, “Substrate sequence selectivity of APOBEC3A implicates intra-DNA interactions”

Assays:
A3A(E72A) [1] = target: T1, A3A(E72A) (Homo sapiens, UniProt P31941 1-199, E72A); experiment: fluorescence anisotropy; pH 6.0; 50 mM MES pH 6.0, 100 mM NaCl, 0.5 mM TCEP, room temperature overnight, 10 nM TAMRA-oligo; competition with 300 nM A3A(E72A); pH series: acetate 4.0-5.0, MES 5.5-6.5, HEPES 7.0-8.0, Tris 8.5-9.0; conditions: protein: recombinant; tags: His6-SUMO removed by Ulp1 (untagged); label: 5' TAMRA; hairpin
T1 sequence (P31941 whole entry E72A): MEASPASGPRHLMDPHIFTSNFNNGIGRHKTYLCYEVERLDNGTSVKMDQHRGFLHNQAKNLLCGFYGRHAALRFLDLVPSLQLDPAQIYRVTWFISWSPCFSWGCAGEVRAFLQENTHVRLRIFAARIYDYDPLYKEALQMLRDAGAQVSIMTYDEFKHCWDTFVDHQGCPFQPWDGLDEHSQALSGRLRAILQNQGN

A3A(E72A) [2] = target: T1, A3A(E72A); experiment: fluorescence anisotropy; pH 5.5; 50 mM MES pH 6.0, 100 mM NaCl, 0.5 mM TCEP, room temperature overnight, 10 nM TAMRA-oligo; competition with 300 nM A3A(E72A); pH series: acetate 4.0-5.0, MES 5.5-6.5, HEPES 7.0-8.0, Tris 8.5-9.0; conditions: protein: recombinant; tags: His6-SUMO removed by Ulp1 (untagged); label: 5' TAMRA

B1: Hairpin-AAA (structured_DNA)
DNA: GCCATCAAAAGATGGG
Question: For B1, which Kd (A3A(E72A) [1]) is on record?
Answer: Its Kd is 676 ± 399 nM.

B2: Poly A-TTC (pH series, 4A-TTC-6A) (ssDNA)
DNA: AAAATTCAAAAAA
Question: How did the Kd (A3A(E72A) [2]) turn out when B2 was run?
Answer: The Kd was 68 ± 3 nM.
